The target in data set [1] is Abi-P2 of E. coli prophage EC30 (residues 1–541) (E. coli prophage EC30 (Enterobacteria phage P2-EC30)). Briefly: SEC-MALS; Superdex 200 Increase 10/300 GL, 100 μl samples, 25 mM Tris pH 7.0, 400 mM NaCl, 2% glycerol, 1 mM DTT. (In general: SEC sorts molecules by how far they enter the pores of the column.)
The target is the same in data set [2]. Briefly: cryo-EM structure; Abi-P2 1 mg/ml in 20 mM Tris pH 7.0, 500 mM NaCl, 1 mM DTT; tilted dataset, C3 symmetry, 3.9 Å low-quality reconstruction, not deposited.
For data set [3] the target is unchanged. The experiment in a line: crystal structure; Abi-P2 (1–541) 6 mg/ml, sitting drop at 18°C and 4°C; space group P2(1); 3.1 Å.
Data set [4] deals with the molecule itself. Briefly: cryo-EM structure; Ll-AbiK 1.0 mg/ml on Quantifoil R1.2/1.3 grid, single-particle reconstruction with D3 symmetry, 2.3 Å.
Data set [5] deals with the molecule itself. The experiment in a line: cryo-EM structure; Ll-AbiK Y44F 1.74 mg/ml on C-flat-2/1 grid, 2D classification; only hexamer classes used for the reconstruction (D3 symmetry, 2.7 Å).

Numbering of substitutions follows the chain as printed. Numbers in names are those of the source. Where “and” joins values, the source holds several entries; their conditions need not be identical. Equal values may be shown once.

For the molecule “Abi-P2 of E. coli prophage EC30 (residues 1–541) (enzyme)”, the stoichiometry N in data set [1], in data set [2] and in data set [3] was 3 in each case.

B1: Lactococcus lactis AbiK, wild type (Ll-AbiK–DNA adduct) (enzyme)
chain: MKKEFTELYDFIFDPIFLVRYGYYDRSIKNKKMNTAKVELDNEYGKSDSFYFKVFNMESFADYLRSHDLKTHFNGKKPLSTDPVYFNIPKNIEARRQYKMPNLYSYMALNYYICDNKKEFIEVFIDNKFSTSKFFNQLNFDYPKTQEITQTLLYGGIKKLHLDLSNFYHTLYTHSIPWMIDGKSASKQNRKKGFSNTLDTLITACQYDETHGIPTGNLLSRIITELYMCHFDKQMEYKKFVYSRYVDDFIFPFTFENEKQEFLNEFNLICRENNLIINDNKTKVDNFPFVDKSSKSDIFSFFENITSTNSNDKWIKEISNFIDYCVNEEHLGNKGAIKCIFPVITNTLKQKKVDTKNIDNIFSKRNMVTNFNVFEKILDLSLKDSRLTNKFLTFFENINEFGFSSLSASNIVKKYFSNNSKGLKEKIDHYRKNNFNQELYQILLYMVVFEIDDLLNQEELLNLIDLNIDDYSLILGTILYLKNSSYKLEKLLKKIDQLFINTHANYDVKTSRMAEKLWLFRYFFYFLNCKNIFSQKEINSYCQSQNYNSGQNGYQTELNWNYIKGQGKDLRANNFFNELIVKEVWLISCGENEDFKYLN
modifications: DNA (9–17 nt by mass spectrometry) covalently attached by its 5′ end to the hydroxyl group of Tyr44
notes: AbiK of Lactococcus lactis, encoded on plasmid pSRQ800; synthetic gene; theoretical MW of the monomer 71.5 kDa; it says that the whole length of the polypeptide chain is visible in the model except residues 189–190; The short DNA was synthesised in the bacterial cell and co-purified; source: E. coli BL21 Star (DE3), purified (HisTrap, SUMO protease, HisTrap flow-through, Superdex 200); not shown: …
With B1, the stoichiometry N (in general, a count of units in the complex or per binding partner) in data set [4] was 6.

B2: Ll-AbiK Y44F (enzyme, Lactococcus lactis)
chain: B1 chain with Y44F
notes: AbiK of Lactococcus lactis with the protein-priming tyrosine 44 replaced by phenylalanine; Unable to carry out protein-primed DNA synthesis, so it carries no DNA; Purification of the variants is described only in general terms with the wild type; also called Y44F variant; source: E. coli BL21 Star (DE3), purified; not shown: His6-SUMO, N-terminal, cleaved
With B2, the “stoichiometry N” value in data set [5] is 3 and 6.

Source of the values: publication PMC9508834, “Mechanism of protein-primed template-independent DNA synthesis by Abi polymerases” (Nucleic Acids Research, 2022).
